The data set concerns the target hnRNP A1 tandem RRMs (UP1-like) (UniProt P09651 1-196). Description: fluorescence anisotropy; 35 C; NMR buffer: sodium phosphate pH 6.5 (50 mM for tandem RRMs, 25 mM for single RRMs), 1 mM BME, 50 uM EDTA, no added salt stated; ITC 25 C, NMR 298 K (10% D2O), FA 35 C. The note with it: protein: recombinant; tags: 2xHis6-lipoyl tag removed by TEV; label: 3' fluorescein. For orientation: In fluorescence polarisation assays a small probe gives low polarisation when free and higher when bound to something large.

The text below walks through data of paper PMC12171016, “hnRNP A1 induces aberrant CFTR exon 9 splicing via a newly discovered ESS element”.

Usually Kd stands for the concentration at which binding is half-saturated.

hnRNP A1 tandem RRMs (UP1-like), sequence (P09651 1-196): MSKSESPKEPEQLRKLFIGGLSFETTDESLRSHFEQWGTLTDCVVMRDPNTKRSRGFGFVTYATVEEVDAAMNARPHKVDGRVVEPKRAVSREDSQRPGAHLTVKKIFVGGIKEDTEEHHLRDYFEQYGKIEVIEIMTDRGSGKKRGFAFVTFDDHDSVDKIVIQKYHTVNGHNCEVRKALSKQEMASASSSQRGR

In the case of CAGGGAUUUGGGGAC (ssRNA) [CFTR exon 9 ESS 15-mer ssRNA wt], the Kd is 99 nM.
The value for CAGGGAUUUCGCGUA (ssRNA) [CFTR exon 9 ESS 15-mer ssRNA mut4] was 117 nM.
